From the supplement of paper PMC10567573

B1: MIA2 (parent)
chain: NSISSDKEATVPCTEILTEKKDTI
B2: FBF1 (parent)
chain: LQRASILDMRRDHEEQLQRLKLLK

Variants of: B1
Assay: protein stability index of a GFP-peptide fusion (GPS, HEK-293T) (PSI 1-6); higher = more stable
Conditions: c terminus: a fixed tail appended
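Also: lentivirally expressed fusions sorted by FACS into six bins by GFP to DsRed ratio, PSI derived from sequencing read proportions per bin multiplied by bin number.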

Protein stability index of substitutions, site by site:
T18: G 5.43; H 5.35; I 5.19; K 5.42; L 5.11; M 4.89; N 5.46; P 5.26; Q 5.4; R 5.1; S 5.39; V 5.12; W 5.05; Y 5.19
E19: A 5.34; C 5.21; D 5.46; F 4.62; G 5.22; H 5.03; I 4.72; K 4.93; L 4.43; M 5.08; N 5.32; P 5.66; Q 5.22; R 5.42; S 5.3; T 5.17; V 5.18; W 4.59; Y 5.06
K20: A 5.34; C 5.25; D 5.68; E 5.53; F 4.64; G 5.47; H 5.42; I 5.15; L 4.94; M 5.35; N 5.53; P 5.3; Q 5.39; R 5.17; S 5.54; T 5.48; V 5.31; W 4.54; Y 4.75
K21: A 5.37; C 5.27; D 5.72; E 5.69; F 5.07; G 5.16; H 5.15; I 5.14; L 5.42; M 5.7; N 5.48; P 5.36; Q 5; R 5.39; S 5.37; T 5.51; V 5.1; W 4.59; Y 4.84
D22: A 5.35; C 4.97; E 5.6; F 4.5; G 5.33; H 4.94; I 4.55; K 5.16; L 4.57; M 4.62; N 5.21; P 5.43; Q 5.11; R 4.89; S 4.7; T 5.04; V 4.31; W 3.49; Y 4.53
T23: A 5.55; C 5.46; D 5.17; E 5.61; F 4.83; G 5.5; H 5.3; I 5.09; K 5.54; L 5.37; M 5.33; N 5.24; P 5.65; Q 5.55; R 5.13; S 5.47; V 5.32; W 4.17; Y 5.1
I24: A 5.66; C 5.68; D 5.72; E 5.81; F 5.33; G 5.56; H 5.45; K 5.35; L 5.32; M 5.52; N 5.7; P 5.66; Q 5.61; R 5.36; S 5.69; T 5.67; V 5.63; W 5.32; Y 5.36

Variants of: B2
Assay: as above
Conditions: c terminus: a fixed tail appended

Protein stability index: each site, then its substitutions
L1: A 3.81; C 3.11; D 4.73; E 4.42; F 3.19; G 3.89; H 3.33; I 4.12; K 3.64; M 3.45; N 3.64; P 3.87; Q 3.69; R 3.3; S 3.35; T 3.94; V 3.51; W 3.22; Y 2.35
Q2: A 3.28; C 2.63; D 3.94; E 3.44; F 3; G 3.79; H 3.35; I 2.49; K 2.93; L 2.25; M 3.28; N 3.85; P 3.95; R 3.27; S 3.15; T 3.54; V 2.88; W 2.4; Y 2.77
R3: A 3.86; C 3.02; D 4.17; E 4.12; F 2.8; G 4.21; H 3.92; I 2.23; K 3.74; L 2.92; M 3.02; N 3.93; P 4.02; Q 3.33; S 3.9; T 3.5; V 2.92; W 1.9; Y 3.4
A4: C 2.97; D 3.64; E 4.02; F 2.9; G 3.17; H 3.73; I 3.13; K 3.19; L 3.13; M 3.19; N 3.83; P 4.08; Q 3.7; R 3.83; S 2.67; T 3.6; V 2.57; W 2.28; Y 2.96
S5: A 3.59; C 2.99; D 3.81; E 3.15; F 2.3; G 3.71; H 2.86; I 2.34; K 3.21; L 2.49; M 3.03; N 3.65; P 3.48; Q 3.85; R 2.83; T 3.52; V 2.92; W 2.34; Y 2.26
I6: A 4.03; C 3.4; D 4.31; E 3.98; F 3.51; G 4.28; H 4.19; K 3.7; L 4.02; M 3.94; N 4.16; P 3.94; Q 4.06; R 3.46; S 4.15; T 3.66; V 3.57; W 3.62; Y 3.58
L7: A 4.22; C 3.68; D 4.03; E 4.55; F 2.85; G 4.1; H 4.1; I 3.09; K 3.42; M 3.85; N 3.99; P 3.98; Q 3.65; R 3.6; S 4.27; T 3.38; V 3.97; W 2.9; Y 3.56
D8: A 3.01; C 3.2; E 3.86; F 2.56; G 2.76; H 3.61; I 2.51; K 2.77; L 2.19; M 3.06; N 3.48; P 3.51; Q 3.07; R 2.71; S 3.6; T 3.49; V 2.33; W 2.5; Y 2.72
M9: A 3.84; C 2.25; D 3.4; E 3.72; F 3.22; G 4.12; H 3.49; I 3.81; K 3.9; L 3.24; N 3.85; P 3.93; Q 3.86; R 3.72; S 3.49; T 3.94; V 3.61; W 3.04; Y 3.61
R10: A 3.36; C 2.8; D 3.44; E 3.35; F 2.36; G 3.79; H 3.45; I 2.96; K 3.97; L 2.5; M 2.9; N 3.91; P 3.53; Q 3.51; S 3.9; T 3.79; V 3.33; W 3.06; Y 2.59
R11: A 3.23; C 3.36; D 3.69; E 3.64; F 2.89; G 3.54; H 2.88; I 2.98; K 3.7; L 3.44; M 3.03; N 3.1; P 3.67; Q 3.59; S 3.43; T 3.86
